Assays:
[1] = biological target: T1, Recombinant human BMPR2-Fc (BMPR2 extracellular domain-IgG Fc fusion protein) (human, UniProt Q13873 27-150); assay: BLI (Octet Red), FIG. 2B
T1 construct: extracellular domain; also called immobilized BMPR2; BMPRII; not shown: IgG Fc of the fusion protein (captured on anti-human IgG Fc sensors)
T1 sequence (looked up): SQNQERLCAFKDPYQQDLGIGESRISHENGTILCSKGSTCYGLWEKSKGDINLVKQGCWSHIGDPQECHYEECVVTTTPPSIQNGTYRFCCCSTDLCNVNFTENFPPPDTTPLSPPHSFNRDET
Experimental: (§1) To characterize the biochemical interactions of the scFv clones with recombinant human ALK1 and BMPR2 receptors, we used Bio-Layer Interferometry (Octet Red 384, ForteBio). Receptors, expressed as IgG Fc fusion proteins (i.e., ALK1-Fc, and BMPR2-Fc) were immobilized onto Anti-Human IgG Fc Capture Sensors (ForteBio, #18-0015) at a concentration of 10 µg/mL in an equilibration buffer of HEPES 20 mM (GIBCO #15630), 0.05% Tween-20 (Promega #H5151), and Imidazole 25 mM (SIGMA #10250) in PBS. All the clones were tested at different ranges of concentration in equilibration buffer: 50 nM, 100 nM, 200 nM, and 400 nM. The ForteBio program methodology was set as follows: Baseline equilibration of 60 s, loading time of 60 s, washing time of 120 s, association time of 300 s, and dissociation time of 600 s. The binding kinetics were analyzed using the ForteBio data analysis software.
(§2) Bio-Layer Interferometry was used to determine the affinities of scFv clones for human BMPR2 and ALK1 receptors. The binding kinetics of scFv clones ALK1.3 (FIG. 1A) and ALK1.8 (FIG. 1B) versus immobilized ALK1; and BMPR2.12 (FIG. 1C) and BMPR2.23 (FIG. 1D) against BMPR2 are shown.

[2] = biological target: T2, Recombinant human ALK1-Fc (ALK1 extracellular domain-IgG Fc fusion protein) (human, UniProt P37023 22-118); assay: BLI (Octet Red), immobilized ALK1, FIG. 2A
T2 construct: extracellular domain; Bought reagent (R&D #370AL is named for the luciferase assay); also called immobilized ALK1; ACVRL1; not shown: IgG Fc of the bought fusion protein (captured on anti-human IgG Fc sensors)
Experimental: as §1, §2

[3] = biological target: T1, Recombinant human BMPR2-Fc (BMPR2 …); assay: BLI, FIG. 4C
Experimental: as §1

[4] = biological target: T2, Recombinant human ALK1-Fc (ALK1 …); assay: BLI, immobilized ALK1, FIG. 4B
Experimental: as §1

[5] = biological target: T2, Recombinant human ALK1-Fc (ALK1 …); assay: BLI (Octet Red), FIG. 2A
Experimental: as §1, §2

[6] = biological target: T1, Recombinant human BMPR2-Fc (BMPR2 …); assay: BLI, immobilized BMPR2, FIG. 4C
Experimental: as §1

[7] = biological target: T2, Recombinant human ALK1-Fc (ALK1 …); assay: BLI, FIG. 4B
Experimental: as §1

[8] = biological target: T2, Recombinant human ALK1-Fc (ALK1 …); assay: BLI, immobilized ALK1, FIG. 4D
Experimental: as §1

T2 sequence (P37023 22-118): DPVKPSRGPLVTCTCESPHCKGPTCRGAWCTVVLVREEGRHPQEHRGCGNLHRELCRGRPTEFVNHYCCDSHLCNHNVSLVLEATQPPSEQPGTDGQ

B1: scFv clone BMPR2.12 (anti-BMPR2/BMPRII) (scFv)
scFv: QSALTQPASVSGSPGQSITISCTGTSSDVGGYKSVSWYQQHPGKAPKLMIYDVSNRPSGVSDRFSGSKSGNTASLTISGLQAEDEADYYCSSYTSSSSLWVFGGGTKLTVLGEGKSSGSGSESKASQVQLVQSGAEVKKPGSSVKVSCKASGGTFSSYAISWVRQAPGQGLEWMGRIIPILGIANYAQKFQGRVTMTEDTSTDTAYMELSSLRSEDTAVYYCATDLWGVGADWGQGTLVTVSS
notes: Human scFv from phage display, VL-linker-VH, expressed in E. coli
Question: Does B1 bind [1]?
Answer: binds

Question: Does B1 bind [2]?
Answer: no binding

B2: Biotinylated scFv BMPR2.12 (scFv)
scFv: B1 scFv
modifications: biotinylated (DSB-X Biotin Protein Labeling Kit; average 1.5-2 sites per molecule; sites not stated)
notes: BMPR2.12 scFv after low substitution ratio biotinylation; also called BMPR2.12-Bio
Question: What does the source list for B2?
Answer: binding result [3]: binds; binding result [4]: no binding

B3: scFv clone ALK1.3 (anti-ACVRL1/ALK1) (scFv)
scFv: QSALTQPASVSGSPGQSITISCAGTSSDVGTYNYVSWYQQHPGKAPKLMIYDVSKRPSGVPDRFSGSKSGNTASLTISGLQAEDEADYYCYSYTTSSTWVFGGGTKVTVLGEGKSSGSGSESKASQVQLQESGPGLLKPSQTLSLTCTVSGDSIGSGDYYWSWIRQPPGKGLEWIGYSYHTGSTDYNPSLKSRVSISVDRSKNQFSLKLRSVTAADTAVYYCARDYYGYLGYWGQGTLVTVSS
notes: as for B1
Question: Does B3 bind [5]?
Answer: binds

Question: Does B3 bind [6]?
Answer: no binding

B4: Biotinylated scFv ALK1.3 (scFv)
scFv: B3 scFv
modifications: biotinylated (DSB-X Biotin Protein Labeling Kit; average 1.5-2 sites per molecule; sites not stated)
notes: ALK1.3 scFv after low substitution ratio biotinylation; also called ALK1.3-Bio
Question: Does B4 bind [7]?
Answer: binds

Question: Does B4 bind [6]?
Answer: no binding

B5: scFv clone BMPR2.23 (anti-BMPR2/BMPRII) (scFv)
scFv: QAVLTQPSSLSASPGASASLTCTLHSGINVATYRIYWYQQKPGSPPQYLLTYKSDLDKHQGSGVPSRFSGSKDASANAGILLISGLQSDDEGDYYCLIWHDYVWYFGGGTKVTVLGEGKSSGSGSESKASEVQLLESGGGLVQPGRSLRLSCAASGFTFDDYAMHWVRQAPGKGLEWVSGISWNSGSIGYADSVKGRFTISRDNAKNSLYLQMNSLRAEDTALYYCAKGGWGSSTHYYYGMDVWGQGTTVTVSS
Question: Does B5 bind [8]?
Answer: no binding

B6: Biotinylated scFv BMPR2.23 (scFv)
scFv: B5 scFv
modifications: biotinylated (DSB-X Biotin Protein Labeling Kit; average 1.5-2 sites per molecule; sites not stated)
notes: BMPR2.23 scFv after biotinylation
Question: Does B6 bind [8]?
Answer: no binding
